From US20260258115A1 (MAPP BIOPHARMACEUTICAL, published 2026)

B1: ADI-41772 (antibody, V domains shown)
VH: EVQLLESGGGLVEPGTSLRLSCEASGFTFSDYYMSWIRQAPGKGPEWVADISSRGVVTYYADSVKGRFTISRDNAKNSLYLQLNSLGAEDTAVYYCARLREVTYIMPTIDYFDYWGQGTLVTVSS
VL: SYELTQPPSVSVSPGQTARITCSGDAFVKKYAYWYHQKSGQAPVVVIYEDTKRPSGIPERFSGSSSGTTATLTISGAQVEDEGDYYCYSRDFSGDHGVFGGGTKLTVL
B2: ADI-41812 (antibody, V domains shown)
VH: EVQLVESGGGLVKPGGSLRLSCAASGFTFSSYSMNWVRQAPGKGLEWVSSISAGSSYTDYAESVKGRFTISRDNAKNSLYLKMNSLRAEDTAVYYCARDPGYCSSNSCTVAMDVWGQGTTVTVSS
VL: SYELTQPPSVSGAPGQRVTISCTGSSSNIGAGYDVHWYQQLPGTAPKLLIYGNNNRPSGVPDRFSGSKSGTSASLAITGLQAEDEADYYCQSYDRTLVIFGGGTKLTVL
B3: ADI-36675 (antibody, V domains shown)
VH: EVQLVESGGGLVQPGGSLRLSCAASGFTFNRFAMSWVRQAPGKGLEWVSGISGSGGSTLYADSVKGRFTISRDNSKNTLYLQINSLRVEDTAVYYCASRSSYDDVWNGYVDWDWGFDFYYYGMDVWGQGTTVTVSS
VL: QAVVTQEPSMSAAPGQKVTISCSGGDSNIRNNYVFWYQQLPGTAPKLLIYDNTKRPSGIPGRFSGSKSGASATLDITGLQTGDEADYYCGTWDSSLSALVFGGGTQLTVL
B4: ADI-41584 (antibody, V domains shown)
VH: QVQLVESGAEVKKPGASVKVSCKASGYTFTDYYIHWVRQAPGQGLEWVGRINPNSGYINYAQKFQGRLTMTRDTSISTAYLELSSLRSDDTAVYYCTRLPLLEPLNFFDYWGQGTLVTVSS
VL: QSVVTQPPSVSGAPGQRVTISCTGSSSNIGAGYDVHWYQQLPGTAPKVLIYGNNNRPSGVPDRFSGSKSGTSASLAITGLQAEDEADYYCQSFDSSLSSSYVFGTGTKLTVL
B5: ADI-41571 (antibody, V domains shown)
VH: EVQLLESGGGLVKPGGSLRLSCEASGFPFNSYHMNWIRQSPGKGLEWVSYITGGSSFSNYADSVKGRFTISRDNAKNSLYLQMNSLRAEDTAVYYCARTTLDCTSTSCHYRFDYWGQGTLVTVSS
VL: QSVLTQPPSVSGAPGQRITISCNGSNSNIGAGYDVHWYQQLPGKAPKLLIYSNNNRPSGVPDRFSGSKSGTSASLAITGLQGEDEADYYCQSHDTRLSGNVVFGGGTKLTVL
B6: ADI-41563 (antibody, V domains shown)
VH: QVQLVESGPGLVKPSETLSLTCTVSDDSITNNFWTWIRQPPGKGLEWIGYIYYSGSTNYNPSLKSRITMSVDLSKNQFSLKLSSVTAADTAVYYCARLTSGGVDYWGQGTLVTVSS
VL: QSVLTQPPSLSGAPGQRVTISCTGSSSNIGADYHVHWYQQLPGTAPKLLIYQNTNRPSGVPDRFSASKSGTSVSLAITGLQAEDEADYYCQSYDSSLSAWVFGGGTKLTVL
B7: ADI-41788 (antibody, V domains shown)
VH: QVQLVQSGAEVKKPGASVKVSCQASGYTLTTYDINWVRQAPGQGLEWMGWMNANSGNTGYAQKFQGRVTMTRNISISTAYMELSSLGPEDTAVYYCARGFYKWNDWSFDYWGQGTLVTVSS
VL: QSVLTQPPSVSVAPGQTARITCGGNNIGSKSVHWYQQKPGQAPVLVVYDDSDRPSGIPERFSGSNSGNTAPLTISRVEAGDEADYYCQVWDGDSAHHAVFGGGTQLTVL
B8: ADI-41800 (antibody, V domains shown)
VH: QVQLVQSGAEVKKPGASVKVSCKASGYTFTDYYMHWVRQAPGQGLEWLAWINPYTGGTNYAQKFQGRVTLTRDTSVSTTYMEVTRLRSDDTAVYYCARGESFHHWGQGTLVTVSS
VL: QSALTQPASVSGSPGQSITISCTGTSSDIGGYDYVSWYQQHPGKVPKLMIYEVSTRPSGVSIRFSGSKSGNTASLTISGLQAEDEADYYCSSYTRSTITSVVFGGGTKLTVL
B9: ADI-41810 (antibody, V domains shown)
VH: QVQLVQSGGGVVQPGRSLRLSCAASGFNFHNYAMHWVRQAPGKGLEWVAVISYDGGNKHYADSVKGRFTISRDNSKNTLYLQMNSLRPDDTAVYYCARGHSDWRGDYFDFWGQGTLVTVSS
VL: DIQLTQSPATLSVSPGERAILSCRASQNVGTNLAWYQQKPGQAPRLLIYDASTRATGIPARFSGSGAGTDFTLTISGLQSEDFAVYYCQQYINWPPYTFGQGTKLEIK
B10: ADI-41792 (antibody, V domains shown)
VH: QVQLVQSGGGLVKHGGSLRLSCAASGFTFSSYSMNWVRQAPGKGLEWASSISSSSSYIYYADSVKGRFTISRDNAKNSLYLQMNSLRAEDTAVYYCARTEYSSSSPIFDYWGQGTLVTVSS
VL: QSVLTQPPSVSGAPGQRVTISCTGSSSNIGAGYDVHWYQQLPGTAPKLLTYGNSNRPSGVPDRFSGSKSGTSASLAITGLQAEDEADYYCQSYDSSLSGSVFGGGTKVTVL
B11: ADI-41783 (antibody, V domains shown)
VH: QVQLVQSGDEVKKPGASVKVSCKSSGYTFTHFGVSWVRQAPGQGLEWMGWISGYNGNTNYAQKLQGRVTMTTDTSTTTAYMELTSLRSDDTAVYYCARDSPAGTVTLDFWGQGTTVTVSS
VL: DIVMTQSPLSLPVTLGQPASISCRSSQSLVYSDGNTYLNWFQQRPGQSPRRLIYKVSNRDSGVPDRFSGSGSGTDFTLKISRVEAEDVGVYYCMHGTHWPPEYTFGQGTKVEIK
B12: ADI-41568 (antibody, V domains shown)
VH: QVQLQQWGARLLKPSETLSLTCAVYGGSFSGYYWSWIRQSPGKGLEWIGEINHSGSTNYNPSLKSRVTISRDTSKKQFSLKVSSVTAADTAVYYCARDPPIRCNGDSCKSDQYRYGMDVWGQGTTVTVSS
VL: QPGLTQPPSVSVSPGQTARITCSGDALPKQYAYWYQQKPGQAPVLVIHKDNERPSGIPERFSGSSSGTTVTLTISGVQAEDEADYYCQSADTSGSYRLFGGGTKLTVL
B13: ADI-41433 (antibody, V domains shown)
VH: EVQLLESGGGAVQPGRFLRLSCAASGFTFRSYGMHWVRQAPGKGLEWVAVISYDGSDKYYADSVKGRFTISRDNSKNTLFLLMNGLRAEDAAVYYCAKDIASAGTLRGSDVWGQGTMVTVSS
VL: QPVLTQPRSVSGSPGQSVTISCTGTSSDVGGFNYVSWYQQHPGKAPKLMIYDVRVRPSGVPDRFSGSKSGNTASLTISGLQGEDEADYYCCSYTVTYTLVFGGGTKLTVL
B14: ADI-41437 (antibody, V domains shown)
VH: QVQLVQSGGEVKKPGASVKVSCKASGYTFTHYGISWARQAPGQGIEWMGWINVHNGNTEYAQRFQGRVTMTTDTSTNTAYMEMTSLTSDDTAVYYCARDKIVVVVVPNYHGMDVWGQGTLVTVSS
VL: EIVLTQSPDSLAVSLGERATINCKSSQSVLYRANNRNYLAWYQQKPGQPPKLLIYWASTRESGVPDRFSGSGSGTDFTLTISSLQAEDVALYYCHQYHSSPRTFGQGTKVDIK
B15: ADI-41441 (antibody, V domains shown)
VH: EVQLVQSGPGLVKPSETLSLTCSVSGASISRYHYYWGWIRQSPGKGLEWIGTIYYSGTTYYNPSLESRVTISADTSKNQVSLKLTSVTAADTAVYYCARGSGDTALDFSFEYWGQGALVTVSS
VL: DIQLTQSPSFLSASVGDRITITCRASQGISNSLAWYQQKPGKAPKLLIYAASTLQFAVPSRFSGSGSGTEFTLTISSLQPEDFATYYCQQLDSYPLTFGGGTKLEIK
B16: ADI-41424 (antibody, V domains shown)
VH: QVQLVQSGAEVREPGASVKVSCKPSGYTFANYGISWVRQAPGQGLEWMAWISAYNGNTNYAPKVQGRVSVTTDSSTGIGYMELRSLRSDDTAVYYCVRDTPAIAGAATLDFWGQGTLVTVSS
VL: DIVLTQSPLSLAVTPGQSASISCRSRQSHVFSDGNTYVSWFQQRPGRSPRRLIYRVSYRDSGVPDRFSGSGSGSDFTLRISRVEAEDVGVYYCMQGTHWPRTFGQGTKLEIK
B17: ADI-41417 (antibody, V domains shown)
VH: QVQLVESGGGLVKPGGSLRLSCAASGFTFSSYSMNWVRQAPGKGLEWVSSISAGSSYIYYADSLKGRFTISRDNAKNSLYLQMNSLRAEDTAVYYCARVNTHYYDSSAYHNFDSWGQGTLVTVSS
VL: QPVVTQPPSVSGAPGQRVTISCTGSSSNIGAGYDVHWYQQLPGTAPKLLIYGNTNRPSGVPERFSGSKSGTSASLAITGLQAEDEADYYCQSYDTNLSAPWVFGGGTKLTVL
B18: ADI-41409 (antibody, V domains shown)
VH: QVQLVQSGAEVKKPGASVKVSCKASGYTFTNYGISWVRQAPGQGLEWMGWISAYNGNTNYAQKFQDRVTMTTDTSTSTAYMELRSLRYDDTAVYYCARDTPGEYASAMFDHWGQGTLVTVSS
VL: DIVMTQSPLSLPVTLGQPASISCRSSQSLVYSDGNTYLSWFQQRPGQSPRRLIYKVSNRDSGVPDRFSGSGSGTDFTLKISGVEAEDVGVYYCMQGTHWPPTFGQGTKLEIK
B19: ADI-41439 (antibody, V domains shown)
VH: QVQLVQSGTEVKNPGASVKVSCKASGYTFSNYGITWVRQAPGQGLEWMAWISAYNGNILYAQNVQGRVTMTTDTSTSTGYMELRSLRSDDTAVYYCARDAPAGTLTLLDYWGQGTLVTVSS
VL: DIVMTQTPLSLPVTLGQPASISCRPSQSLVYSDGNTYLNWFQQRPGQSPRRLIYKVSNRDSGVPDRFSGSGSGTDFTLRISRVEAEDVGVYYCMQGSHWPYAFGQGTKVEIK
B20: ADI-41438 (antibody, V domains shown)
VH: QVQLVQSGAEMRRPGSSVRLPCKASGYTFVSHTIVWVRQAPGQGLEWMGGIIPSLRTPNYAQNFQDRLTITADESARTAYMELSSLTSNDTAVYYCARETFQGGYYLDYWGQGTLVTVSS
VL: EIVMTQSPGTLSVSPGDTAALSCRASQSVGRNLAWYQQKPGQAPRLLIFGASTRAADIPGRFSGSGSGTEFTLTITSLQSEDFAVYYCQQYNKWPPYTFGQGTKVEIK
B21: ADI-41423 (antibody, V domains shown)
VH: QVQLVESGGGLVKPGGSLRLSCAASGFTFSSYSMNWVRQAPGKGLEWVSSISSSSSYIYYADSVKGRFTISRDNAKNSLYLQMNSLRAEDTAVYYCARDPSSSWNRNDYWGQGTLVTVSS
VL: QSVLIQPASVSGSPGQSITISCTGTSSDVGGYNYVSWYQQHPGKAPKLMIYDVSNRPSGVSNRFSGSKSGNTASLTISGLQAEDEADYYCSSYTSSSTLVVFGGGTKVTVL

Biological target: RSV F on RSV-A2 virus (Respiratory syncytial virus, RSV-A2, UniProt P03420 26-574)
Experiment: cell-based or functional assay

Q: Which “Neutralization IC50 (RSV subtype A)” value does the source give for B1 here?
A: The value was 0.04 µg/mL.

Q: B2 was tested. Which “Neutralization IC50 (RSV subtype A)” value did it give?
A: The value was 0.17 µg/mL.

Q: B3 was tested. Which “Neutralization IC50 (RSV subtype A)” value did it give?
A: Its value is 0.006 µg/mL.

Q: Which “Neutralization IC50 (RSV subtype A)” value does the source give for B4 here?
A: The value was greater than 25 µg/mL.

Q: For B5, which “Neutralization IC50 (RSV subtype A)” value is on record?
A: The value was 0.0315 µg/mL.

Q: B6 was tested. Which “Neutralization IC50 (RSV subtype A)” value did it give?
A: The value was 0.0323 µg/mL.

Q: Which “Neutralization IC50 (RSV subtype A)” value does the source give for B7 here?
A: The value was 0.47 µg/mL.

Q: B8 was tested. Which “Neutralization IC50 (RSV subtype A)” value did it give?
A: The value was greater than 25 µg/mL.

Q: With B9 as the binder, how does the “Neutralization IC50 (RSV subtype A)” value read?
A: The value was greater than 25 µg/mL.

Q: For B10, which “Neutralization IC50 (RSV subtype A)” value is on record?
A: The value was greater than 25 µg/mL.

Q: B11 was tested. Which “Neutralization IC50 (RSV subtype A)” value did it give?
A: Its value is 0.25 µg/mL.

Q: How did the “Neutralization IC50 (RSV subtype A)” value turn out when B12 was run?
A: Its value is greater than 25 µg/mL.

Biological target: RSV fusion glycoprotein (RSV F) on RSV-A2 virus (respiratory syncytial virus, UniProt P03420 26-574)
Experiment: cell-based or functional assay

Q: Which “Neutralization IC50 (RSV subtype A)” value does the source give for B13 here?
A: The value was greater than 25 µg/mL.

Q: With B14 as the binder, how does the “Neutralization IC50 (RSV subtype A)” value read?
A: Its value is greater than 25 µg/mL.

Q: B15 was tested. Which “Neutralization IC50 (RSV subtype A)” value did it give?
A: Its value is greater than 25 µg/mL.

Q: How did the “Neutralization IC50 (RSV subtype A)” value turn out when B16 was run?
A: Its value is 0.28 µg/mL.

Q: With B17 as the binder, how does the “Neutralization IC50 (RSV subtype A)” value read?
A: Its value is 0.71 µg/mL.

Q: With B18 as the binder, how does the “Neutralization IC50 (RSV subtype A)” value read?
A: The value was 0.29 µg/mL.

Q: For B19, which “Neutralization IC50 (RSV subtype A)” value is on record?
A: Its value is 0.34 µg/mL.

Q: B20 was tested. Which “Neutralization IC50 (RSV subtype A)” value did it give?
A: Its value is greater than 25 µg/mL.

Q: With B21 as the binder, how does the “Neutralization IC50 (RSV subtype A)” value read?
A: The value was greater than 25 µg/mL.
